# What was measured:
# [1] = biological target: human AmphiphysinII/Bin1 N-BAR domain (human); assay: double-mixing stopped-flow N assay (fluorescence); unfolded in 4 M urea, refolding at 1 to 5 μM N-BAR in 0.66 M urea for 0.1 to 300 s, then unfolding in 4.5 M urea; λ2 from the amplitudes of the fast unfolding phase λ5; 15°C; step: monomers to dimeric intermediate I2
# [2] = biological target: human AmphiphysinII/Bin1 N-BAR domain (human); assay: stopped-flow refolding kinetics, single mixing (fluorescence); unfolded in 4 M urea, refolding by 11-fold dilution to 0.4 M urea, 0.1 to 5 μM N-BAR, 20 mM Na phosphate, 100 mM NaCl, pH 7.4, 15°C; step: two monomeric intermediates I to dimeric intermediate I2; λ2 fixed to the value from fluorescence anisotropy
substance,measurement,setting,value
human AmphiphysinII/Bin1 N-BAR domain (domain or fragment),"λ2, second-order rate constant of the dimerization step at 0.66 M urea, 1 μM N-BAR",[1],260000 M⁻¹ s⁻¹
same,"λ2, second-order rate constant of the dimerization step at 0.66 M urea, 2 μM N-BAR",[1],480000 M⁻¹ s⁻¹
same,"λ2, second-order rate constant of the dimerization step at 0.66 M urea, 5 μM N-BAR",[1],430000 M⁻¹ s⁻¹
same,"λ2, second-order rate constant of the dimerization step at 0.4 M urea",[2],620000 M⁻¹ s⁻¹

# — PMC4569573
